“Also recorded” adds a separate entry of the source.
Legend:
[1] = tested on: Heat Shock 70 kD protein 1A; assay: Northern blot of ecdysone-induced Bit1 or AES cell lines; assay type: cell-based, human; conditions: ecdysone-inducible ECR-293 cell line expressing Bit1 or AES
Protocol: (§1) To determine whether the Bit1/AES pathway can regulate the transcription of genes other than Bcl-2, two stable cell lines were established expressing either-Bit1 or AES under control of an ecdysone-inducible promoter. To detect genes regulated by Bit1 or AES, probes were prepared from the ecdysone-induced cell lines and used to screen microarrays representing 19,000 human cDNAs. […] Down-regulation of HSP-70 and thymosin 4 in cells induced to express Bit1 or AES was confirmed by Northern blot analysis (see FIG. 7).
(§2) Northern blot analysis was performed as follows. Total RNA (10 μg) was electrophoresed on a 1% agarose-formaldehyde gel and transferred to nitrocellulose filters. The filters were hybridized using the same RNA probes as in the microarray experiments in Rapid-hyb buffer and washed according to the manufacturer's instructions (Amersham-Pharmacia).

Thymosin β-4 = assay: as above; assay type: cell-based, human; conditions: ecdysone-inducible ECR-293 cell line expressing Bit1 or AES
Protocol: as §1, §2

HOP92 cells = assay: Percentage of GFP-positive detached cells after transfection; assay type: cell-based; conditions: 72 hours after transfection; cells express only negligible amounts of AES
Protocol: To determine if Bit1 and AES are both required for apoptosis induction, HEK 293T, HOP92, and CHO cells were transfected with a GFP (vector), GFP-Bit1, or GFP-AES fusion protein constructs, as indicated in FIG. 3E. The cells were examined 48 hours (HEK 293T and CHO) or 72 hours (HOP92) after transfection, and the percentage of GFP-positive detached cells was measured.
Because the HEK 293T cells lack detectable Bit1 activity, it seemed possible that AES required endogenous Bit1 for the pro-apoptotic activity. An NIH data bank identified HOP92 as a cell line that expresses only negligible amounts of AES. […] CHO cells (FIG. 3E) and HeLa cells, which express both Bit1 and AES, underwent apoptosis upon transfection with either protein.

AES = target: T1, AES (Homo sapiens, UniProt Q08117); assay: Yeast two-hybrid analysis; assay type: binding; conditions: yeast co-transformed with vectors encoding both Bit1 and AES
T1 construct: expressed in transfected cells; host or cells: yeast strain AH109
T1 sequence (Q08117 1-197): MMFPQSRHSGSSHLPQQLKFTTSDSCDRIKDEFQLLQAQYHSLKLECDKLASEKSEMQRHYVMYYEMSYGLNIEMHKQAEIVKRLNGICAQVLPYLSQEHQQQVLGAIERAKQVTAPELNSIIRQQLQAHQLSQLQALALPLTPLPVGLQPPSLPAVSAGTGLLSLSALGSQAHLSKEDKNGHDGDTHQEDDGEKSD
Protocol: To explore the mechanism whereby Bit1 induces cell death, a yeast-two-hybrid screening assay was performed to search for binding partners for the Bit1 protein. Full-length Bit1 cDNA was fused to the Gal4 DNA-binding domain in the pGBKT7 vector and used as bait; a human fetal brain cDNA expression library fused to the Gal4 transcriptional activation domain was screened in cells expressing the Bit1/GAL4 DNA-binding domain fusion. Approximately one million transformants from the cDNA library were screened, and about 100 clones positive for both nutritional selection and α-galactosidase activity were obtained.
The ability of AES to interact with Bit1 was confirmed in mammalian cells.
Yeast two-hybrid screening was performed as follows. Full length CGI-147 was cloned in-frame with the Gal4 DNA binding domain in vector pGBKT7 and used to screen a yeast two-hybrid library derived from human fetal brain (Clontech). Yeast strain AH109 was co-transformed with PGBKT7-Bit1, pACT-2-AES or both, and growth selected in SD medium -ADE/-His/-Leu/-Trp and assayed for α-galactosidase activity according to the manufacturer's instructions (Clontech).

HEK 293 cells = assay: Annexin V-FITC/propidium iodide staining of Bit1-transfected cells; assay type: cell-based, human
Protocol: (§3) Bit1 activity was analyzed in the human embryonic kidney cell line, HEK 293. […] Furthermore, HEK 293 cells were transfected with a Bcl-2-promoter-luciferase reporter construct together with increasing amounts of Bit1 expression construct; Bcl-2 transcription was measured by quantifying luciferase […] after 24 hours in culture. In agreement with the CHO cell results, transcription from the Bcl-2 promoter was suppressed in the Bit1-transfected HEK 293 cells (see FIG. 1B). […] In particular, the percentages of annexin V-positive cells (lower right quadrants) are about 1.4% in the control and about 4.7% in the Bit1-transfected cells.
Analysis of cell viability and apoptosis was performed as follows. Cell viability was measured by trypan blue exclusion analysis. Apoptosis was confirmed by DNA fragmentation (Oncogene; La Jolla, Calif.) thirty-six hours after transfection. Annexin-V staining (BD Biosciences Clontech; Palo Alto, Calif.) was performed according to the manufacturer's protocol.

Bcl-2 promoter = assay: Bcl-2-promoter-luciferase reporter assay in HEK 293 cells; assay type: cell-based, human; conditions: luciferase after 24 hours
Protocol: as §3

HEK 293T cells = assay: Anoikis of attached or detached (poly-HEMA) transfected cells; assay type: cell-based, human
Protocol: The role of Bit1 in the tendency of detached cells to undergo apoptosis (anoikis in the strictest sense) was then examined. HEK 293T cells were transfected with C-terminally myc-tagged (mitochondrial) Bit1 or with empty vector, and the cells were cultured either on tissue-culture plates (attached) or on poly-HEMA (detached) for 48 hours. The number of attached cells (10^6) was the same whether the cells were transfected with Bit1 or vector (assigned as 100% in FIG. 8H).
As is shown in FIG. 8H, Bit1 and control transfected cells had the same level of spontaneous apoptosis when grown attached to a culture dish. In striking contrast, detachment induced a higher level of cell death in the Bit1-transfected cells than in the control cells. Given that the transfection efficiency was about 50-70% in the 293T cells, the nearly 4-fold higher apoptosis level of the Bit1-transfected cells translates into more than 5-fold difference in anoikis sensitivity.

19,000 human cDNAs = assay: cDNA microarray analysis of ecdysone-induced Bit1 or AES cell lines; assay type: cell-based
Protocol: as §1
cDNA microarray analysis was performed as follows. Total RNA was purified 48 hours after treatment with 10 μM ponasterone A (Invitrogen; San Diego, Calif.) from the ecdysone inducible cell line ECR-293-Bit1 or ECR-293-AES according to the manufacturer's instructions (Qiagen; Valencia, Calif.). cDNA probes were generated and hybridized with a microarray containing 19,000 human cDNAs from Microarray Centre at University Health Network, Ontario Cancer institute. cDNAs were labeled with fluorescent dyes (Cy3 or Cy5) using reverse transcription. Arrays were processed and hybridized essentially as described in Iyer et al., Science 283:83-87 (1999). After hybridization, arrays were scanned to measure fluorescence using a ScanArray 4000 scanner (Perkin Elmer; Meriden, Conn.). Raw data files generated by scanner software were imported into ImaGene and Gene Spring for analysis. Experiments were performed in duplicate using color reversals.

B1: Bit1: human Bit1 polypeptide of 179 residues (SEQ ID NO:2), pro-apoptotic, expressed in cells by transfection (protein, listed as Homo sapiens)
chain: MPSKSLVMEYLAHPSTLGLAVGVACGMCLGWSLRVCFGMLPKSKTSKTHTDTESEASILGDSGEYKMILVVRNDLKMGKGKVAAQCSHAAVSAYKQIQRRNPEMLKQWEYCGQPKVVVKAPDEETLIALLAHAKMLGLTVSLIQDAGRTQIAPGSQTVLGIGPGPADLIDKVTGHLKLY
Question: What does the source list for B1?
Answer: Northern result, suppression of Heat Shock 70 kD protein 1A [1]: 3 fold; Northern result, suppression of Thymosin β-4 (Thymosin β-4): 5 fold; apoptosis induction in HOP92 cells (HOP92 cells): resistant; interaction with AES, growth of co-transformed yeast (AES): yeast grew; Late stage apoptosis, both annexin V and propidium iodide uptake (upper right quadrants) (HEK 293 cells; Bit1-transfected HEK 293 cells versus control): 18%; percentages of annexin V-positive cells (lower right quadrants) (HEK 293 cells; Bit1-transfected HEK 293 cells, control about 1.4%): about 4.7%; transcription from the Bcl-2 promoter (Bcl-2 promoter): suppressed; reduction of the number of surviving cells in detached cultures (HEK 293T cells; C-terminally myc-tagged Bit1, poly-HEMA, 48 hours, 8% in the vector transfection): 30%; apoptosis level of Bit1-transfected cells versus control cells, detached (HEK 293T cells; HEK 293T cells, detached): ~4 fold; difference in anoikis sensitivity (HEK 293T cells; corrected for transfection efficiency of about 50-70%): more than 5 fold; Bcl-2 expression (19,000 human cDNAs; Bit1 and AES stable cell lines): not measurably altered; Microarray result: gene induced (19,000 human cDNAs; at least a two-fold induction, value is the gene): Atrophin-1 interacting protein 1; also recorded: Mannosyl (β-1,4)-glycoprotein; also recorded: insulin-like growth factor-binding; also recorded: Tissue factor pathway inhibitor 2; Microarray result: gene suppressed (19,000 human cDNAs; at least a two-fold suppression, value is the gene): Heat Shock 70 kD protein 1A; also recorded: Thymosin β-4; also recorded: Actin-binding LIM protein; also recorded: sialytransferase

Reference: patent US8017326B2, “Methods of modulating cell death based on the Bit-1/AES regulatory pathway” (Sanford-Burnham Medical Research Institute, priority 2002, dated 2011)
